Measured values published in patent US20240350583A1, “COMPOSITION FOR PREVENTING OR TREATING FIBROTIC DISEASES, COMPRISING HAPLN1” (Chung Ang University Industry Academic Cooperation …, priority 2021, published 2024).

Legend:
[1] = system: human colon fibroblast cell line (CCD-18Co); assay: TGFβ1-induced fibrosis of human colon fibroblast cell line, αSMA western blot; assay type: cell-based
Procedure: (1) A human colon fibroblast cell line (CCD-18Co (human colon fibroblast cell line; ATCC, CRL-1459)) was seeded (1.5×10^5 cells/well) in a 6-well plate according to the experimental scheme in FIG. 3A and incubated in Eagle's minimum essential medium (EMEM) medium including 10% fetal bovine serum (FBS) for 24 hours in an incubator at 37° C. and 5% CO2.
(2) After replacing with serum-free EMEM medium, the medium was incubated for 24 hours.
(3) The plates were then treated with TGF-β (10 ng/ml) to induce fibrosis and incubated for 24 hours.
(4) Afterwards, each well of the plate was then treated with the composition of the present disclosure at rhHAPLN1 protein content of 0, 3, 10, 30, and 100 ng/ml and pirfenidone 100 μg/mL and 200 μg/mL, respectively, and incubated for 24 hours.
(5) Each sample was then treated with cell lysis buffer and harvested.
(6) Western blot was performed on the samples. Here, anti-αSMA Ab (Abcam, ab7817), anti-GAPDH Ab (Santa Cruz, sc-32233) were used as primary antibodies and HRP-conjugated anti-mouse IgG Ab (CST, #7076) as secondary antibodies to confirm the protein expression levels of αSMA and GAPDH.

[2] = system: normal human lung fibroblast (NHLF); assay: TGFβ1-induced fibrosis of normal human lung fibroblasts, αSMA western blot; assay type: cell-based
Procedure: (1) normal human lung fibroblasts (NHLF) cultured for 9 passages were seeded (1.0×10^5 cells/well) in a 6-well plate and incubated in FBM-2 (Fibroblast Growth Medium-2, CC-3131, Lonza) medium for 24 hours in an incubator at 37° C. 5% CO2. (2) After replacing with serum-free medium, the medium was incubated for 24 hours.
(3) In this regard, under conditions in which fibrosis was induced by treatment with TGFβ1 (10 ng/ml), each well of the plate was treated with the composition of the present disclosure with rhHAPLN1 protein content of 0, 3.1, 12.5, 25 and 100 ng/ml and 100 μg/mL and 200 μg/mL of pirfenidone (Selleckchem), respectively, and incubated for 24 hours.
(4) Afterwards, each sample was washed twice with phosphate buffered saline (PBS, pH 7.2), and then the expression level of αSMA, a marker for myofibroblasts, was confirmed by western blot.

[3] = system: ischemia/reperfusion-induced kidney fibrosis; assay: Ischemia/reperfusion kidney fibrosis mouse model; assay type: in vivo
Procedure: According to the experimental scheme of FIG. 14A, 8-week-old C57BL/6 male mice were subjected to pentobarbital (50 mg/kg BW, i.p.) anesthesia, a flank incision was made to induce ischemia, the kidneys were exposed, and blood flow was blocked for 25 minutes by clamping the bilateral renal pedicles using a non-traumatic microaneurysm clamp (Roboz Surgical Instruments). The clamps were then removed and the incisions were sutured. The sham-operation was performed in the same manner as the ischemia/reperfusion experiment, except for the blockage of blood flow.
One day after ischemia, blood urea nitrogen (BUN) was measured, and only mice whose value rose above about 98 mg/dL (specified as 100 mg/dl from now on) were grouped into experimental groups and the experiment was conducted. The experimental groups were administered various drugs, including the composition of the present disclosure, daily from day 7 after surgery, and the kidneys were harvested on day 14 for histologic and biochemical analysis.
In addition, blood was taken on day 7 after drug administration to measure BUN concentration, and 14 days later, blood and urine were taken to measure creatinine concentration in blood and urine and BUN concentration in blood. Additionally, creatinine clearance was calculated.
Biochemical analysis (evaluation of fibrosis index expression): To confirm the expression of αSMA in kidney tissue, western blot was performed using antibodies against αSMA.
To confirm the expression of αSMA in sham-operation (Sham) and ischemia/reperfusion (IR) mouse kidney tissue, samples from each experimental group were loaded onto a single gel, western blot was performed, and the density of each band was measured. Ponceau and GADPH were utilized as equal loading markers (FIG. 14B). Where SV; sham-vehicle, SB; sham-rhHAPLN1-dissolving solution, IRV; IR-vehicle, IRP; IR-pirfenidone, IRA; IR-composition of the present disclosure (rhHAPLN1) A, IRB; IR-composition of the present disclosure (rhHAPLN1) B, IRC; IR-composition of the present disclosure (rhHAPLN1) C, respectively, and more details are shown in Table 1 and Table 2 above. More specifically, the Sham-vehicle is a group in which only the rhHAPLNB1-free buffer solution was diluted in PBS and IP-injected into the Sham control group. Sham-rhHAPLN1-dissolving solution is a group in which rhHAPLN1 concentration B (0.02 mg/kg) was diluted and IP injected to confirm the effect of rhHAPLN1 under normal conditions. […] IR-pirfenidone is a group in which 300 mg/kg of pirfenidone was administered orally after induction of I/R fibrosis.
In addition, the fold change in expression level for IRV in relation to αSMA expression was graphed (FIG. 14C).
As part of the histological analysis of fibrosis, paraffin-fixed kidneys were cut into 3 μm sections, and Sirus red and PAS staining were performed on these slide sections to assess collagen expression and fibrotic lesions in the tissue, respectively (FIG. 14D). Where SV; sham-vehicle, SB; sham-rhHAPLN1-dissolving solution, IRV; IR-vehicle, IRP; IR-pirfenidone, IRA; IR-composition of the present disclosure (rhHAPLN1) concentration 0.1 mg/kg, IRB; IR- the composition of the present disclosure (rhHAPLN1) at a concentration of 0.02 mg/kg, IRC; IR-the composition of the present disclosure (rhHAPLN1) at a concentration of 0.004 mg/kg, respectively.
In addition, in order to quantify the expression of collagen in the above-mentioned tissue, two of the outer medulla areas of the kidney were randomly imaged in the tissue staining photograph of FIG. 14D, and collagen-positive area was marked. Here, the red color is a sirus red positive signal (FIG. 14E).
As an experiment to analyze kidney function, blood was taken through a glass capillary tube with heparin added through the retroorbital vein plexus, and urine was obtained using a metabolic cage. Blood urea nitrogen and creatinine (plasma creatinine, PCr) concentrations were measured using Vitros250 (Johnson & Johnson). […]

[4] = IRP: pirfenidone 300 mg/kg B.W oral
[5] = all rhHAPLN1 contents, pirfenidone 100 and 200 μg/mL
[6] = IRA: rhHAPLN1 0.1 mg/kg B.W intraperitoneal
[7] = IRB: rhHAPLN1 0.02 mg/kg B.W intraperitoneal

In the case of `Cc1ccc(=O)n(-c2ccccc2)c1` [pirfenidone, reference compound], the inhibition at 100 µg/mL ([1]; Homo sapiens, CCD-18Co, pirfenidone 100 μg/mL) is reported as 10.6%, the “relative level of αSMA (value used in the inhibition formula; TGFβ1 alone 3.82, untreated 1)” value ([1]; pirfenidone 100 μg/mL) is reported as 3.52 and the “expression level of αSMA at 200 μg/mL versus 100 μg/mL” value ([1]; pirfenidone 200 μg/mL) is reported as “higher expression level of αSMA than 100 μg/mL”. For the same molecule, the “anti-fibrotic effect (expression level of αSMA compared to composition without rhHAPLN1)” value ([2]; pirfenidone 100 and 200 μg/mL) was “no anti-fibrotic effect”, the “collagen positive area compared to IRV, quantified with i-Solution (FIG. 14F)” value (from here on “collagen positive area compared to IRV”) [3, 4] was “weaker” and the “expression of collagen compared to IRV, blinded test of stained photographs (FIG. 14D)” value (“expression of collagen compared to IRV” for short) [3, 4] was “weaker”.

B1: rhHAPLN1: recombinant human HAPLN1 protein of SEQ ID NO: 1 produced in CHO-K1 cells, stabilized in acetic acid buffer, sucrose, PS80, pH 5.0 (protein, listed as Homo sapiens)
chain: MKSLLLLVLISICWADHLSDNYTLDHDRAIHIQAENGPHLLVEAEQAKVFSHRGGNVTLPCKFYRDPTAFGSGIHKIRIKWTKLTSDYLKEVDVFVSMGYHKKTYGGYQGRVFLKGGSDSDASLVITDLTLEDYGRYKCEVIEGLEDDTVVVALDLQGVVFPYFPRLGRYNLNFHEAQQACLDQDAVIASFDQLYDAWRGGLDWCNAGWLSDGSVQYPITKPREPCGGQNTVPGVRNYGFWDKDKSRYDVFCFTSNFNGRFYYLIHPTKLTYDEAVQACLNDGAQIAKVGQIFAAWKILGYDRCDAGWLADGSVRYPISRPRRRCSPTEAAVRFVGFPDKKHKLYGVYCFRAYN
In the case of B1, the “expression level of αSMA compared to composition that does not include rhHAPLN1 protein (FIG. 3C)” value ([1]; TGFβ1 10 ng/ml 24 h, then rhHAPLN1 3, 10, 30, 100 ng/ml 24 h) is reported as “significantly lower”, the “anti-fibrotic action from αSMA western blot band, compared to pirfenidone (FIG. 3B)” value [1, 5] is reported as “much better anti-fibrotic action compared to pirfenidone” and the “anti-fibrotic efficacy of rhHAPLN1 relative to pirfenidone at 100 μg/mL” value ([1]; rhHAPLN1 10 ng/ml) is reported as “approximately 7 folds”. For the same molecule, the “anti-fibrotic efficacy relative to pirfenidone at 200 μg/mL” value ([1]; rhHAPLN1 10 ng/ml) was “much higher than twice”, the “inhibition of TGFβ1-induced αSMA” value ([1]; rhHAPLN1 10 ng/ml) was 71.6% and the “relative level of αSMA (value used in the inhibition formula; TGFβ1 alone 3.82, untreated 1)” value ([1]; rhHAPLN1 10 ng/ml) was 1.8. For the same molecule, the “rhHAPLN1 protein content showing the most excellent anti-fibrotic efficacy” value ([1]; αSMA) was 10 ng/mL, the “expression level of αSMA compared to composition that does not include rhHAPLN1 protein (FIG. 5B)” value ([2]; TGFβ1 10 ng/ml, rhHAPLN1 3.1, 12.5, 25, 100 ng/ml, 24 hours) was “significantly lower” and the “anti-fibrotic action from αSMA western blot band, compared to pirfenidone (FIG. 5A)” value [2, 5] was “much better anti-fibrotic action compared to pirfenidone”. The “anti-fibrotic efficacy relative to pirfenidone at 100 μg/mL and at 200 μg/mL” value ([2]; rhHAPLN1 12.5 ng/ml) was “about twice as higher”, the “rhHAPLN1 protein content showing the most excellent anti-fibrotic efficacy” value ([2]; αSMA) was 12.5 ng/mL and the “collagen positive area compared to IRV” value [3, 6] was “weaker”. For the same molecule, the “expression of collagen compared to IRV” value [3, 6] was “weaker”, the “expression of αSMA in kidney compared to IRV (FIG. 14C)” value [3, 6] was “lowered to pirfenidone-like levels” and the “collagen positive area compared to IRV” value [3, 7] was “weaker”. For the same molecule, the “expression of collagen compared to IRV” value [3, 7] was “weaker”, the “expression of αSMA in kidney compared to IRV (FIG. 14C)” value [3, 7] was “lowered to pirfenidone-like levels” and the “expression of αSMA in kidney compared to IRV (FIG. 14C)” value ([3]; IRC: rhHAPLN1 0.004 mg/kg B.W intraperitoneal) was “as high as the IRV”.
